{"source": "paper PMC6430397", "about": "“The pharmacological properties of 3-arm or 4-arm DOTA constructs for conjugation to α-melanocyte-stimulating hormone analogues for melanoma imaging” (PLoS ONE, 2019)", "key": {"[1]": {"assay": "Biological distribution in B16-F1 melanoma-bearing mice", "assay_type": "in vivo, mouse", "conditions": "male, C57BL6, mouse, in vivo, iv, 37 kBq/mouse, total radioactivity, mean, n = 3 mice; for tissue uptake at 10 min / tissue uptake dose at 10 min: 10 min after i.v. 37 kBq/mouse; for tissue uptake at 0.5 h / tissue uptake dose at 0.5 h: 30 min after i.v. 37 kBq/mouse; for tissue uptake at 1 h / tissue uptake dose at 1 h: 60 min after i.v. 37 kBq/mouse; for tissue uptake at 2 h / tissue uptake dose at 2 h: 120 min after i.v. 37 kBq/mouse; for tissue uptake at 3 h / tissue uptake dose at 3 h: 180 min after i.v. 37 kBq/mouse", "method": "C57BL6 male mice (5 weeks old) were transplanted with B16-F1 cells (5 × 10^5 cells/100 μL) into the thigh of the mice. […] The mice were housed and continuously monitored each day for 2 weeks in a 12-hour light/12-hour dark cycle with free access to food and water. The tumor size reached 8.7 ± 2.8 mm at 2 weeks after transplant of cells. Two mice with tumor sizes of 13 and 15 mm were excluded from our experiments. Mice with a tumor size <10 mm were fasted with no food overnight with water supplied ad libitum before experiments.\nFor biological distribution studies, B16-F1-bearing mice were administered ^111In-labeled 3-arm or 4-arm DOTA-α-MSH via the tail vein (37 kBq/mouse). At 10, 30, 60, 120, and 180 min after injection, the mice were euthanized under isoflurane (n = 3 per time point), and the following tissues were collected: brain, lung, heart, stomach, liver, small intestine, large intestine, kidney, blood, muscle, and B16-F1 melanoma. Tissues were weighed, and radioactivity was quantified using an automated γ-ray counter to calculate the percent injected dose (%ID) or percent injected dose per gram of tissue (%ID/g).\nFor SPECT imaging, ^111In-labeled 3-arm or 4-arm DOTA-α-MSH was injected into the tail vein of four B16-F1-bearing mice in total (37 MBq/mouse). For SPECT imaging, acquisition was started at 10 min after injection and continued every 10 min for 180 min. The data were reconstructed using the ordered subset expectation maximization method with 16 subsets and six iterations including no scatter and attenuation correction. The voxel size was set to 0.8×0.8×0.8 mm. Post-reconstruction smoothing filtering was applied using a 1.0-mm Gaussian filter. […] In these images, three to five regions of interest were placed over the kidney, muscle, and B16-F1 melanoma in which accumulation could be seen, and the time activity curve of each was obtained as the %ID/g."}, "[2]": {"assay": "Stability analysis in plasma, liver and kidney of mice, ex vivo TLC", "parameters": "species or system mouse", "conditions": "γ-counter, mean ± SD, n = 3 mice"}, "[3]": {"conditions": "read-out: Biological distribution, Blood"}, "[4]": {"conditions": "read-out: Biological distribution, Brain"}, "[5]": {"conditions": "read-out: Biological distribution, Heart"}, "[6]": {"conditions": "read-out: Biological distribution, Kidney"}, "[7]": {"conditions": "read-out: Biological distribution, Large intestine"}, "[8]": {"conditions": "read-out: Biological distribution, Liver"}, "[9]": {"conditions": "read-out: Biological distribution, Lung"}, "[10]": {"conditions": "read-out: Biological distribution, Muscle"}, "[11]": {"conditions": "read-out: Biological distribution, Small intestine"}, "[12]": {"conditions": "read-out: Biological distribution, Stomach"}, "[13]": {"conditions": "B16-F1 melanoma, read-out: Biological distribution, Melanoma"}}, "note": "Where two headings read alike, the source gives them in different places."}
{"compound": "CSCC[C@H](NC(=O)[C@H](CO)NC(=O)[C@H](Cc1ccc(O)cc1)NC(=O)[C@H](CO)NC(C)=O)C(=O)N[C@@H](CCC(=O)O)C(=O)N[C@@H](Cc1c[nH]cn1)C(=O)N[C@@H](Cc1ccccc1)C(=O)N[C@@H](CCCNC(=N)N)C(=O)N[C@@H](Cc1c[nH]c2ccccc12)C(=O)NCC(=O)N[C@@H](CCCCNC(=S)Nc1ccc(C[C@H]2CN(CC(=O)O)CCN(CC(=O)O)CCN(CC(=O)O)CCN2CC(=O)O)cc1)C(=O)N1CCC[C@H]1C(=O)N[C@H](C(=O)O)C(C)C", "note": "[^111In-labeled 4-arm DOTA-α-MSH, metal not drawn]", "values": [{"measurement": "tissue uptake at 10 min", "setting": "[1]; [3]", "result": 4.03, "unit": "%ID/g"}, {"measurement": "tissue uptake at 10 min", "setting": "[1]; [4]", "result": 0.04, "unit": "%ID/g"}, {"measurement": "tissue uptake at 10 min", "setting": "[1]; [5]", "result": 0.55, "unit": "%ID/g"}, {"measurement": "tissue uptake at 10 min", "setting": "[1]; [6]", "result": 17.1, "unit": "%ID/g"}, {"measurement": "tissue uptake dose at 10 min", "setting": "[1]; [7]", "result": 0.03, "unit": "%ID"}, {"measurement": "tissue uptake at 10 min", "setting": "[1]; [8]", "result": 2.52, "unit": "%ID/g"}, {"measurement": "tissue uptake at 10 min", "setting": "[1]; [9]", "result": 0.42, "unit": "%ID/g"}, {"measurement": "tissue uptake at 10 min", "setting": "[1]; [10]", "result": 0.1, "unit": "%ID/g"}, {"measurement": "tissue uptake dose at 10 min", "setting": "[1]; [11]", "result": 0.05, "unit": "%ID"}, {"measurement": "tissue uptake dose at 10 min", "setting": "[1]; [12]", "result": 0.09, "unit": "%ID"}, {"measurement": "tissue uptake at 0.5 h", "setting": "[1]; [3]", "result": 2.02, "unit": "%ID/g"}, {"measurement": "tissue uptake at 0.5 h", "setting": "[1]; [4]", "result": 0.03, "unit": "%ID/g"}, {"measurement": "tissue uptake at 0.5 h", "setting": "[1]; [5]", "result": 0.46, "unit": "%ID/g"}, {"measurement": "tissue uptake at 0.5 h", "setting": "[1]; [6]", "result": 13.3, "unit": "%ID/g"}, {"measurement": "tissue uptake dose at 0.5 h", "setting": "[1]; [7]", "result": 0.03, "unit": "%ID"}, {"measurement": "tissue uptake at 0.5 h", "setting": "[1]; [8]", "result": 1.45, "unit": "%ID/g"}, {"measurement": "tissue uptake at 0.5 h", "setting": "[1]; [9]", "result": 0.52, "unit": "%ID/g"}, {"measurement": "tissue uptake at 0.5 h", "setting": "[1]; [10]", "result": 0.12, "unit": "%ID/g"}, {"measurement": "tissue uptake dose at 0.5 h", "setting": "[1]; [11]", "result": 0.04, "unit": "%ID"}, {"measurement": "tissue uptake dose at 0.5 h", "setting": "[1]; [12]", "result": 0.09, "unit": "%ID"}, {"measurement": "tissue uptake at 1 h", "setting": "[1]; [3]", "result": 1.01, "unit": "%ID/g"}, {"measurement": "tissue uptake at 1 h", "setting": "[1]; [4]", "result": 0.03, "unit": "%ID/g"}, {"measurement": "tissue uptake at 1 h", "setting": "[1]; [5]", "result": 0.38, "unit": "%ID/g"}, {"measurement": "tissue uptake at 1 h", "setting": "[1]; [6]", "result": 8.12, "unit": "%ID/g"}, {"measurement": "tissue uptake dose at 1 h", "setting": "[1]; [7]", "result": 0.04, "unit": "%ID"}, {"measurement": "tissue uptake at 1 h", "setting": "[1]; [8]", "result": 1.18, "unit": "%ID/g"}, {"measurement": "tissue uptake at 1 h", "setting": "[1]; [9]", "result": 0.22, "unit": "%ID/g"}, {"measurement": "tissue uptake at 1 h", "setting": "[1]; [10]", "result": 0.08, "unit": "%ID/g"}, {"measurement": "tissue uptake dose at 1 h", "setting": "[1]; [11]", "result": 0.03, "unit": "%ID"}, {"measurement": "tissue uptake dose at 1 h", "setting": "[1]; [12]", "result": 0.08, "unit": "%ID"}, {"measurement": "tissue uptake at 2 h", "setting": "[1]; [3]", "result": 0.11, "unit": "%ID/g"}, {"measurement": "tissue uptake at 2 h", "setting": "[1]; [4]", "result": 0.02, "unit": "%ID/g"}, {"measurement": "tissue uptake at 2 h", "setting": "[1]; [5]", "result": 0.14, "unit": "%ID/g"}, {"measurement": "tissue uptake at 2 h", "setting": "[1]; [6]", "result": 6.31, "unit": "%ID/g"}, {"measurement": "tissue uptake dose at 2 h", "setting": "[1]; [7]", "result": 0.03, "unit": "%ID"}, {"measurement": "tissue uptake at 2 h", "setting": "[1]; [8]", "result": 0.9, "unit": "%ID/g"}, {"measurement": "tissue uptake at 2 h", "setting": "[1]; [9]", "result": 0.13, "unit": "%ID/g"}, {"measurement": "tissue uptake at 2 h", "setting": "[1]; [10]", "result": 0.04, "unit": "%ID/g"}, {"measurement": "tissue uptake dose at 2 h", "setting": "[1]; [11]", "result": 0.02, "unit": "%ID"}, {"measurement": "tissue uptake dose at 2 h", "setting": "[1]; [12]", "result": 0.05, "unit": "%ID"}, {"measurement": "tissue uptake at 3 h", "setting": "[1]; [3]", "result": 0.03, "unit": "%ID/g"}, {"measurement": "tissue uptake at 3 h", "setting": "[1]; [4]", "result": 0.01, "unit": "%ID/g"}, {"measurement": "tissue uptake at 3 h", "setting": "[1]; [5]", "result": 0.05, "unit": "%ID/g"}, {"measurement": "tissue uptake at 3 h", "setting": "[1]; [6]", "result": 5.19, "unit": "%ID/g"}, {"measurement": "tissue uptake dose at 3 h", "setting": "[1]; [7]", "result": 0.03, "unit": "%ID"}, {"measurement": "tissue uptake at 3 h", "setting": "[1]; [8]", "result": 0.61, "unit": "%ID/g"}, {"measurement": "tissue uptake at 3 h", "setting": "[1]; [9]", "result": 0.06, "unit": "%ID/g"}, {"measurement": "tissue uptake at 3 h", "setting": "[1]; [10]", "result": 0.03, "unit": "%ID/g"}, {"measurement": "tissue uptake dose at 3 h", "setting": "[1]; [11]", "result": 0.02, "unit": "%ID"}, {"measurement": "tissue uptake dose at 3 h", "setting": "[1]; [12]", "result": 0.05, "unit": "%ID"}, {"measurement": "tissue uptake at 10 min", "setting": "[1]; [13]", "result": 2.22, "unit": "%ID/g"}, {"measurement": "tissue uptake at 0.5 h", "setting": "[1]; [13]", "result": 2.25, "unit": "%ID/g"}, {"measurement": "tissue uptake at 1 h", "setting": "[1]; [13]", "result": 3.34, "unit": "%ID/g"}, {"measurement": "tissue uptake at 2 h", "setting": "[1]; [13]", "result": 4.52, "unit": "%ID/g"}, {"measurement": "tissue uptake at 3 h", "setting": "[1]; [13]", "result": 4.83, "unit": "%ID/g"}, {"measurement": "Fraction ratio of intact radiotracer, Kidney (%)", "setting": "[2]; 10 min after i.v. injection 3.7 MBq/mouse", "result": "96.1 ± 2.0", "unit": "%"}, {"measurement": "Fraction ratio of intact radiotracer, Kidney (%)", "setting": "[2]; 60 min after i.v. injection 3.7 MBq/mouse", "result": "93.3 ± 3.5", "unit": "%"}, {"measurement": "Fraction ratio of intact radiotracer, Kidney (%)", "setting": "[2]; 120 min after i.v. injection 3.7 MBq/mouse", "result": "84.5 ± 3.3", "unit": "%"}, {"measurement": "Fraction ratio of intact radiotracer, Kidney (%)", "setting": "[2]; 180 min after i.v. injection 3.7 MBq/mouse", "result": "80.5 ± 2.8", "unit": "%"}]}
